# Results as given in IntAct's records for PubMed 29892012.
# B1: Exportin-6 (Homo sapiens), Q96QU8 (parent)
# chain: MASEEASLRALESLMTEFFHDCTTNERKREIEELLNNFAQQIGAWRFCLYFLSSTRNDYVMMYSLTVFENLINKMWLGVPSQDKMEIRSCLPKLLLAHHKTLPYFIRNKLCKVIVDIGRQDWPMFYHDFFTNILQLIQSPVTTPLGLIMLKTTSEELACPREDLSVARKEELRKLLLDQVQTVLGLLTGILETVWDKHSVTAATPPPSPTSGESGDLLSNLLQSPSSAKLLNQPIPILDVESEYICSLALECLAHLFSWIPLSASITPSLLTTIFHFARFGCDIRARKMASVNGSSQNCVSGQERGRLGVLAMSCINELMSKNCVPMEFEEYLLRMFQQTFYLLQKITKDNNAHTVKSRLEELDESYIEKFTDFLRLFVSVHLRRIESYSQFPVVEFLTLLFKYTFHQPTHEGYFSCLDIWTLFLDYLTSKIKSRLGDKEAVLNRYEDALVLLLTEVLNRIQFRYNQAQLEELDDETLDDDQQTEWQRYLRQSLEVVAKVMELLPTHAFSTLFPVLQDNLEVYLGLQQFIVTSGSGHRLNITAENDCRRLHCSLRDLSSLLQAVGRLAEYFIGDVFAARFNDALTVVERLVKVTLYGSQIKLYNIETAVPSVLKPDLIDVHAQSLAALQAYSHWLAQYCSEVHRQNTQQFVTLISTTMDAITPLISTKVQDKLLLSACHLLVSLATTVRPVFLISIPAVQKVFNRITDASALRLVDKAQVLVCRALSNILLLPWPNLPENEQQWPVRSINHASLISALSRDYRNLKPSAVAPQRKMPLDDTKLIIHQTLSVLEDIVENISGESTKSRQICYQSLQESVQVSLALFPAFIHQSDVTDEMLSFFLTLFRGLRVQMGVPFTEQIIQTFLNMFTREQLAESILHEGSTGCRVVEKFLKILQVVVQEPGQVFKPFLPSIIALCMEQVYPIIAERPSPDVKAELFELLFRTLHHNWRYFFKSTVLASVQRGIAEEQMENEPQFSAIMQAFGQSFLQPDIHLFKQNLFYLETLNTKQKLYHKKIFRTAMLFQFVNVLLQVLVHKSHDLLQEEIGIAIYNMASVDFDGFFAAFLPEFLTSCDGVDANQKSVLGRNFKMDRDLPSFTQNVHRLVNDLRYYRLCNDSLPPGTVKL
# B2: Inositol polyphosphate 5-phosphatase K (Homo sapiens), Q9BT40 (parent)
# chain: MSSRKLSGPKGRRLSIHVVTWNVASAAPPLDLSDLLQLNNRNLNLDIYVIGLQELNSGIISLLSDAAFNDSWSSFLMDVLSPLSFIKVSHVRMQGILLLVFAKYQHLPYIQILSTKSTPTGLFGYWGNKGGVNICLKLYGYYVSIINCHLPPHISNNYQRLEHFDRILEMQNCEGRDIPNILDHDLIIWFGDMNFRIEDFGLHFVRESIKNRCYGGLWEKDQLSIAKKHDPLLREFQEGRLLFPPTYKFDRNSNDYDTSEKKRKPAWTDRILWRLKRQPCAGPDTPIPPASHFSLSLRGYSSHMTYGISDHKPVSGTFDLELKPLVSAPLIVLMPEDLWTVENDMMVSYSSTSDFPSSPWDWIGLYKVGLRDVNDYVSYAWVGDSKVSCSDNLNQVYIDISNIPTTEDEFLLCYYSNSLRSVVGISRPFQIPPGSLREDPLGEAQPQI
# partner: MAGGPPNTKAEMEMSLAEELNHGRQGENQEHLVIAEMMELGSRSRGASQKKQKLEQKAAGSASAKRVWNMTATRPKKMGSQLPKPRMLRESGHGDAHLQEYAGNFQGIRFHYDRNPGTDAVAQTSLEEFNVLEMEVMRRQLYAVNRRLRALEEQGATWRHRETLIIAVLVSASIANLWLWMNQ
# B3: Protein VAC14 homolog (Homo sapiens), Q08AM6 (parent)
# chain: MNPEKDFAPLTPNIVRALNDKLYEKRKVAALEIEKLVREFVAQNNTVQIKHVIQTLSQEFALSQHPHSRKGGLIGLAACSIALGKDSGLYLKELIEPVLTCFNDADSRLRYYACEALYNIVKVARGAVLPHFNVLFDGLSKLAADPDPNVKSGSELLDRLLKDIVTESNKFDLVSFIPLLRERIYSNNQYARQFIISWILVLESVPDINLLDYLPEILDGLFQILGDNGKEIRKMCEVVLGEFLKEIKKNPSSVKFAEMANILVIHCQTTDDLIQLTAMCWMREFIQLAGRVMLPYSSGILTAVLPCLAYDDRKKSIKEVANVCNQSLMKLVTPEDDELDELRPGQRQAEPTPDDALPKQEGTASGGPDGSCDSSFSSGISVFTAASTERAPVTLHLDGIVQVLNCHLSDTAIGMMTRIAVLKWLYHLYIKTPRKMFRHTDSLFPILLQTLSDESDEVILKDLEVLAEIASSPAGQTDDPGPLDGPDLQASHSELQVPTPGRAGLLNTSGTKGLECSPSTPTMNSYFYKFMINLLKRFSSERKLLEVRGPFIIRQLCLLLNAENIFHSMADILLREEDLKFASTMVHALNTILLTSTELFQLRNQLKDLKTLESQNLFCCLYRSWCHNPVTTVSLCFLTQNYRHAYDLIQKFGDLEVTVDFLAEVDKLVQLIECPIFTYLRLQLLDVKNNPYLIKALYGLLMLLPQSSAFQLLSHRLQCVPNPELLQTEDSLKAAPKSQKADSPSIDYAELLQHFEKVQNKHLEVRHQRSGRGDHLDRRVVL
# partner: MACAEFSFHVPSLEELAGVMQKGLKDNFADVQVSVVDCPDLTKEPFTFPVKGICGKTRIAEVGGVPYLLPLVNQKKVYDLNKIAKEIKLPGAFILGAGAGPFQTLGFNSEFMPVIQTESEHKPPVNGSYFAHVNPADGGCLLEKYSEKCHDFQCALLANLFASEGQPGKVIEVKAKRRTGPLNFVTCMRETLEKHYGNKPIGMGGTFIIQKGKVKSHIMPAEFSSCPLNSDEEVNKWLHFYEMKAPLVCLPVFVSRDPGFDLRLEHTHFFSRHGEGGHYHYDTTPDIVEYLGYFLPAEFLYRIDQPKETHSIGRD
# B4: Keratin, type I cuticular Ha8 (Homo sapiens), O76015 (parent)
# chain: MTSSYSSSSCPLGCTMAPGARNVSVSPIDIGCQPGAEANIAPMCLLANVAHANRVRVGSTPLGRPSLCLPPTCHTACPLPGTCHIPGNIGICGAYGENTLNGHEKETMQFLNDRLANYLEKVRQLEQENAELEATLLERSKCHESTVCPDYQSYFHTIEELQQKILCSKAENARLIVQIDNAKLAADDFRIKLESERSLRQLVEADKCGTQKLLDDATLAKADLEAQQESLKEEQLSLKSNHEQEVKILRSQLGEKLRIELDIEPTIDLNRVLGEMRAQYEAMLETNRQDVEQWFQAQSEGISLQDMSCSEELQCCQSEILELRCTVNALEVERQAQHTLKDCLQNSLCEAEDRFGTELAQMQSLISNVEEQLSEIRADLERQNQEYQVLLDVKTRLENEIATYRNLLESEDCKLPCNPCSTSPSCVTAPCAPRPSCGPCTTCGPTCGASTTGSRF
# partner: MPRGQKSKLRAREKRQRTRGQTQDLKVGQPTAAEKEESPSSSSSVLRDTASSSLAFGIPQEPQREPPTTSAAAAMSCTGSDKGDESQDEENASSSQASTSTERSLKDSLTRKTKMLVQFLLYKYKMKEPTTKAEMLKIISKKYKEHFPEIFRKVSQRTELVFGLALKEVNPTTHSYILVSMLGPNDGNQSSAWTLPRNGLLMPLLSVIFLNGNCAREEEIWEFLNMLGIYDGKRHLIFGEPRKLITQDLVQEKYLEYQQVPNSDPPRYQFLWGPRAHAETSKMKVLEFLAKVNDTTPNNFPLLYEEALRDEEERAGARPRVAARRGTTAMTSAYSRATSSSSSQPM
# B5: Protein VAC14 homolog (Homo sapiens), Q08AM6 (parent)
# chain: B3 chain
# partner: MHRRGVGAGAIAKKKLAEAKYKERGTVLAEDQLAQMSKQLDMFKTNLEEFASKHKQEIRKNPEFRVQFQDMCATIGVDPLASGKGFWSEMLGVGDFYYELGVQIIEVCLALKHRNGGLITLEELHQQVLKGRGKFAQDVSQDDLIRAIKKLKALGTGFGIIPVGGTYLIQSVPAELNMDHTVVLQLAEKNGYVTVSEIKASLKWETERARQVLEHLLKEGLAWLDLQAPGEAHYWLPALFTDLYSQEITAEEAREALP
# Variants of: B1
# Details: with nup62_human NUP62, P37198
# nup62_human NUP62, P37198, sequence (P37198 whole entry): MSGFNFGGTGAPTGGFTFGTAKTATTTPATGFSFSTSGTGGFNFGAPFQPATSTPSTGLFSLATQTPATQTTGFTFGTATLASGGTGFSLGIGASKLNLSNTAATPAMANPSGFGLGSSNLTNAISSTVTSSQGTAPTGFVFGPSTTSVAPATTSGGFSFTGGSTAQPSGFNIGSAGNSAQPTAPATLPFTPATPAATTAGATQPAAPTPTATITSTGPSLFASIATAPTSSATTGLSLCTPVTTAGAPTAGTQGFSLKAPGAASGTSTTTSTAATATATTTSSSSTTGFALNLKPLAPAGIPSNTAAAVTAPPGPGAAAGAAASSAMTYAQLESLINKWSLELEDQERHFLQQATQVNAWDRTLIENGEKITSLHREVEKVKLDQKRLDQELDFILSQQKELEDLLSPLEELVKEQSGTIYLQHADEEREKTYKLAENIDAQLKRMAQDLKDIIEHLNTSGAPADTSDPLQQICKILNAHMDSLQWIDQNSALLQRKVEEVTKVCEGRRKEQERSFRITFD
row,Variant,effect of a mutation on the interaction
1,L512V,with no effect

# Variants of: B2
# Details: with fate1_human FATE1, Q969F0
row,Variant,effect of a mutation on the interaction
1,MSSRKLSGPKGRRLSIHVVTWNVASAAPPLDLSDLLQLNNRNLNLDIYVIGLQELNSGIISLLSDAAFNDSWSSFLMDVLSPLSFIKVSHVRMQGILLLVFAKYQHLPYIQILSTKSTPTGLFGYWGNKGGVNICLKLYGYYVSIINCHLPPHISNNYQRLEHFDRILEMQNCEGRDIPNILDHDLIIWFGDMNFRIEDFGLHFVRESIKNRCYGGLWEKDQLSIAKKHDPLLREFQEGRLLFPPTYKFDRNSNDYDTSEKKRKPAWTDRILWRLKRQPCAGPDTPIPPASHFSLSLRGYSSHMTYGISDHKPVSGTFDLELKPLVSAPLIVLMPEDLWTVENDMMVSYSSTSDFPSSPWDWIGLYKVGLRDVNDYVSYAWVGDSKVSCSDNLNQVYIDISNIPTTEDEFLLCYYSNSLRSVVGISRPFQIPPGSLKEDPLGEAQPQI [R437K],disrupting interaction strength

# Variants of: B3
# Details: with ck054_human C11orf54, Q9H0W9
row,Variant,effect of a mutation on the interaction
1,A127S,with no effect

# Variants of: B4
# Details: with magb4_human MAGEB4, O15481
row,Variant,effect of a mutation on the interaction
1,MTSSYSSSSCPLGCTMAPGARNVSVSPIDIGCQPGAEANIAPMCLLANVAHANRVRVGSTPLGRPSLCLPPTCHTACPLPGTCHIPGNIGICGAYGENTLNGHEKETMQFLNDRLANYLEKVRQLEQENAELEATLLERSKCHESTVCPDYQSYFHTIEELQQKILCSKAENARLIVQIDNAKLAADDFRIKLESERSLRQLVEADKCGTQKLLDDATLAKADLEAQQESLKEEQLSLKSNHEQEVKILRSQLGEKLRIELDIEPTIDLNRVLGEMRAQYEAMLETNRQDVEQWFQAQSEGISLQAMSCSEELQCCQSEILELRCTVNALEVERQAQHTLKDCLQNSLCEAEDRFGTELAQMQSLISNVEEQLSEIRADLERQNQEYQVLLDVKTRLENEIATYRNLLESEDCKLPCNPCSTSPSCVTAPCAPRPSCGPCTTCGPTCGASTTGSRF [D306A],with no effect

# Variants of: B4
# Details: with magb4_human MAGEB4, O15481
# Remark: another data set of the same source
row,Variant,effect of a mutation on the interaction
1,MTSSYSSSSCPLGCTMAPGARNVSVSPIDIGCQPGAEANIAPMCLLANVAHANRVRVGSTPLGRPSLCLPPTCHTACPLPGTCHIPGNIGICGAYGENTLNGHEKETMQFLNDRLANYLEKVRQLEQENAELEATLLERSKCHESTVCPDYQSYFHTIEELQQKILCSKAENARLIVQIDNAKLAADDFRIKLESERSLRQLVEADKCGTQKLLDDATLAKADLEAQQESLKEEQLSLKSNHEQEVKILRSQLGEKLRIELDIEPTIDLKRVLGEMRAQYEAMLETNRQDVEQWFQAQSEGISLQDMSCSEELQCCQSEILELRCTVNALEVERQAQHTLKDCLQNSLCEAEDRFGTELAQMQSLISNVEEQLSEIRADLERQNQEYQVLLDVKTRLENEIATYRNLLESEDCKLPCNPCSTSPSCVTAPCAPRPSCGPCTTCGPTCGASTTGSRF [N270K],with no effect

# Variants of: B5
# Details: with snf8_human SNF8, Q96H20
row,Variant,effect of a mutation on the interaction
1,A127S,with no effect
